The values that follow come from paper PMC6685058 (2019).

B1: AD-CEBP-1(aa 1–319) FL [C. elegans] / BD-IMA-3(aa 278–514) [C. elegans] (parent complex)
chain 1: MYSKLNYSHQKGDQALKHPHLVRLQQSEVRGFTDMPNNGASTSSAGSFARQDSLTIAASLQQRDRERHPVDFMETELDLGDYLQVLHDLDVPTDNVDFDDAELQKCNILYDGEHPYEQPELNGYERHVAYGTGYRVPGDYDQDGYKMNCEVKAETPDFGATKTRRAVKRPVPYDDYQKEYSEESSDMTDNDGSVDDSYFEPKSKKTKSAGLENFKPQTRARKYKLKADEEKAEPTYKLKRARNNDAVRKSRKKAKELQDKKEAEHDKMKRRIAELEGLLQSERDARRRDQDTLEQLLRNKGPMKEQRMPQRHILENFNK
chain 2: VVTHLVPLLGHVDVKVQTAALRAVGNIVTGTDEQTQLVLDSGVLRFMPGLLAHYKEKINKEAVWFVSNITAGNQQQVQDVFDAGIMPMIIHLLDRGDFPTQKEAAWAISNVTISGRPNQVEQMVKLGVLRPFCAMLSCTDSQIIQVVLDGINNILKMAGEAAEQVTSEIEECGGLDKIENLQNHENEDIYKLAFEIIDNFFSSDDETGNVEGAQSSAFGGDVPPVPDAPNGGWNFGK

The variants in the assay derive from B1. Briefly: yeast two-hybrid, β-galactosidase activity; parent: 110; read off a plot.
Regarding chain 1 MYSKLNYSHQKGDQALKHPHLVRLQQSEVRGFTDMPNNGASTSSAGSFARQDSLTIAASLQQRDRERHPVDFMETELDLGDYLQVLHDLDVPTDNVDFDDAELQKCNILYDGEHPYEQPELNGYERHVAYGTGYRVPGDYDQDGYKMNCEVKAETPDFGATKTRRAVKRPVPYDDYQKEYSEESSDMTDNDGSVDDSYFEPKSAATASAGLENFKPQTRARKYKLKADEEKAEPTYKLKRARNNDAVRKSRKKAKELQDKKEAEHDKMKRRIAELEGLLQSERDARRRDQDTLEQLLRNKGPMKEQRMPQRHILENFNK [chain 1 K204A, chain 1 K205A, chain 1 K207A], the response is about 110 Miller units.
Regarding chain 1 MYSKLNYSHQKGDQALKHPHLVRLQQSEVRGFTDMPNNGASTSSAGSFARQDSLTIAASLQQRDRERHPVDFMETELDLGDYLQVLHDLDVPTDNVDFDDAELQKCNILYDGEHPYEQPELNGYERHVAYGTGYRVPGDYDQDGYKMNCEVKAETPDFGATATARAVAAPVPYDDYQKEYSEESSDMTDNDGSVDDSYFEPKSKKTKSAGLENFKPQTRARKYKLKADEEKAEPTYKLKRARNNDAVRKSRKKAKELQDKKEAEHDKMKRRIAELEGLLQSERDARRRDQDTLEQLLRNKGPMKEQRMPQRHILENFNK [chain 1 K162A, chain 1 R164A, chain 1 K168A, chain 1 R169A], the response was about 17 Miller units.
As to chain 1 MYSKLNYSHQKGDQALKHPHLVRLQQSEVRGFTDMPNNGASTSSAGSFARQDSLTIAASLQQRDRERHPVDFMETELDLGDYLQVLHDLDVPTDNVDFDDAELQKCNILYDGEHPYEQPELNGYERHVAYGTGYRVPGDYDQDGYKMNCEVKAETPDFGATKTRRAVKRPVPYDDYQKEYSEESSDMTDNDGSVDDSYFEPKSKKTKSAGLENFKPQTRARKYKLKADEEKAEPTYKLAAARNNDAVRKSRKKAKELQDKKEAEHDKMKRRIAELEGLLQSERDARRRDQDTLEQLLRNKGPMKEQRMPQRHILENFNK [chain 1 K239A, chain 1 R240A], the response was about 190 Miller units.
